The record followed here is patent US20140196172A1, “Organelle Targeting Nanocarriers” (Her Majesty the Queen in Right of Canada, as Repre sented …, priority 2011, published 2014).

The test system of data set [1] is Caco-2 (human colonic epithelial cell line). Description: Uptake of labeled peptides by Caco-2 cells, photometric cell imaging. Particulars: for Average concentration of labeled peptide measured in cells, Caco-2: cells exposed to labeled peptide at 17 μM; for Photometric Cell Imaging (average counts/sec) Caco-2: 1 hr, background about 1×10^5 counts/sec. The data set is classed as cell-based. Here is the method:
Caco-2 and F1112 cells are cultured in Dulbecco's Modified Eagle Medium (DMEM) containing 10% (v/v) fetal bovine serum (FBS) and 50 μg/ml gentamycin at 37° C. in a 95% humidified atmosphere containing 5% CO2. The cells are grown in Falcon™ […] 75 cm^2 cell culture flasks until they reach confluency, then are detached with 0.25% trypsin and 0.02% EDTA and washed with DMEM.
Preparations used for photometric cell imaging are prepared by adding 1000 cells to a Nunc coverglass chamber (2.5 cm^2). Cells are cultured as described above for 3 to 7 days. The cell monolayers are rinsed three times with epithelial cell saline (pH 7.4).
Varying concentrations of fluoresceinated mTPs (100 μM) are added to epithelial cell saline to obtain a final working volume of 400 μl. Final concentrations added to the Caco-2, F1112 and MG cell monolayers as described above are 17 μM, 9 μM and 4 μM. Cells are incubated with the peptides for 1 hr in the dark at 37° C. in a 95% humidified atmosphere containing 5% CO2. At the end of the incubation period, the cell monolayer is rinsed three times with epithelial cell saline and 500 μl of epithelial cell saline is added.
Uptake of labeled peptides by cells is quantified using a photometric detector/cell-imaging system (PTI). An excitation scan is run to determine if uptake has occurred as indicated by peaks at the appropriate wavelengths and if the amount changes in a dose-dependent manner compared to unlabeled cells. A time-based scan is then performed at the optimal excitation and emission wavelength to quantify total uptake, using about 20 cells/view/replicate.

The subject of data set [2] is linearized plasmid DNA (linear double stranded DNA, 6.8 kb). The experiment in a line: Gel mobility shift assay. It is filed as binding. Particulars: minimum peptide needed for complete shift of 100 ng plasmid DNA; — = no shift up to highest ratio tested. Here is the method:
The ten non-labelled oTP sequences identified as having both cell penetrating and organelle targeting properties (Tables 3 and 4) were tested, using a gel mobility shift assay and a nuclease protection assay, for their ability to bind non-covalently to nucleic acids.
The gel mobility shift assay is used to determine the minimum peptide concentration needed to bind to plasmid DNA and cause it to shift during electrophoresis. Purified linearized plasmid DNA (100 ng of linear double stranded DNA, 6.8 kb) is mixed with increasing concentrations of each of the ten oTPs listed in Tables 3 and 4, according to calculated increasing peptide:DNA charge ratios (1:1, 2:1, 3:1, 4:1, 5:1, etc.) until a complete shift is observed in the plasmid DNA during electrophoresis. The DNA is prepared to a final concentration of a 100 ng/μl in sterile water. Each reaction has a final volume of 25 μl and is incubated for 30 min for complex formation and subjected to electrophoresis on 1% agarose gel stained with ethidium bromide.

The subject of data set [3] is mitochondria of triticale protoplasts. Description: qRT-PCR of gfp mRNA, protoplasts transfected with pWMaadA16GFP. It is filed as cell-based. The settings on record: gfp reporter construct. An excerpt: FIG. 19 is a plot showing the level of expression (fold increase, average of 4 replicates) of GFP in triticale protoplasts transfected with the pWMaadA16GFP plasmid in the presence of mTP1 (SEQ ID NO: 1), mTP2 (SEQ ID NO: 2), mTP3 (SEQ ID NO: 3), mTP4 (SEQ ID NO: 4) or mTP5 (SEQ ID NO: 5) compared to the level of expression (fold increase) of the internal control elongation factor 1a (EF1a), as measured by quantitative real time PCR of mRNA levels; and
Wheat mitochondrial aadA16GFP reporter plasmid (pWMaadA16GFP, FIG. 11) is a 4587 base pair wheat specific mitochondrial transformation vector, which targets insertions into the fourth repeat region between the trnfM and rm18 gene cluster which is repeated three times in the Triticum aestivum mitochondrial genome. The insertion site is in the Triticum aestivum mitochondrial genome at nucleotides 300805-300878 and 300880-302834 (GenBank accession No. AP008982.1). A multiple cloning site is introduced following the tmfM target insertion sequence. The selection marker gene is an organelle codon specific aad-gfp fusion gene, which facilitates a dual selection method of spectinomycin resistance through an aadA derivative and visual detection by GFP fluorescence (GenBank accession No. ABX39486; Khan and Maliga, Nat. Biotechnol. (1999 September) 17(9): 910-5). The selection marker gene is driven by the Triticum aestivum mitochondrial atpA gene promoter (GenBank accession No. X54387.1). The aad-gfp fusion gene is terminated with the TpsbA terminator sequence derived from the Triticum aestivum mitochondrial genome at nucleotides 62871-62565 (GenBank accession No. AP008982.1).
The dsDNA construct (pWMaadA16GFP for mitochondrial expression or pWCaadA16GFP for expression in chloroplasts) is combined with the mTP (for mitochondrial expression) or cTP (for expression in chloroplasts) in a final volume of 100 μl of CPW solution. For experiments using mTP1 (SEQ ID NO: 1), mTP2 (SEQ ID NO: 2), mTP3 (SEQ ID NO: 3), or mTP5 (SEQ ID NO: 5), peptides (scaled up from 100 ng, at four times the concentration needed to cause a DNA shift in the gel mobility shift assay (Table 7)) are combined with the pWMaadA16GFP construct (5 μg). For experiments using the remaining oTPs, peptides (30 μg) are combined with the appropriate dsDNA construct (1.5 μg). The mixture is incubated for 10 minutes at room temperature, then incubated with isolated triticale mesophyll protoplasts (500 μl, 10^6 protoplasts/ml, prepared as described in Example 2) for 1 h in the dark at room temperature. CPW solution (500 μl) is added and the mixture is incubated in the dark for 24 h. The cells are imaged using confocal microscopy, as described in Example 2, using MitoTracker® Orange staining to visualize mitochondria and chlorophyll autofluorescence to visualize chloroplasts.
cDNA is generated using a First Strand Synthesis kit (Invitrogen). RNA (1 μg) is added to each sample and the manufacturer's protocol for synthesis followed, with the exception that the volume of the reaction mixture is increased from 20 μl to 30 μl. A negRT sample containing all reagents but no RNA is included in the cDNA synthesis as a negative control.
Standard curves are generated for both elongation factor 1a (EF1a) (internal control) and green fluorescent protein (GFP) (test) genes. […]
Real time PCR reactions are performed using QuantiTect™ SYBR™ Green PCR Master Mix (Qiagen) in a 20 μl reaction volume. […]
(Real-time PCR tracks product formation cycle by cycle.)

As to MAAWMRSLFSPLKKLWIRMH (Zea mays) [mTP2], the “Average concentration of labeled peptide measured in cells, Caco-2” value (“Average concentration of labeled peptide” below) in data set [1] is 20 nm. Moreover, the results for the “Photometric Cell Imaging (average counts/sec) Caco-2” value in data set [1] (labeled peptide 4 μM), in data set [1] (labeled peptide 9 μM) and in data set [1] (labeled peptide 17 μM) were 340000 counts/sec, 420000 counts/sec and 490000 counts/sec, respectively. In addition, the “Peptide:DNA Ratio, Molar Binding Ratio” value in data set [2] turned out to be 167.39. The “GFP expression by mitochondria confirmed by qRT-PCR” value (from here on “GFP expression”) in data set [3] was “GFP is expressed”.
Take “MFSYLPRYPLRAASARALVRATRPSYRSALLRYQ (listed as Triticum aestivum) [mTP1]”: the “Average concentration of labeled peptide” value in data set [1] worked out at 70 nm. Further, the results for the “Photometric Cell Imaging (average counts/sec) Caco-2” value in data set [1] (labeled peptide 4 μM), in data set [1] (labeled peptide 9 μM) and in data set [1] (labeled peptide 17 μM) were 200000 counts/sec, 1200000 counts/sec and 1600000 counts/sec, respectively. For the same sequence, in data set [2], the “Peptide:DNA Ratio, Molar Binding Ratio” value was determined as 264.14. For the same sequence, in data set [3], the “GFP expression” value is reported as “GFP is expressed”.
As for “MKLLWRLILSRKW (listed as Arabidopsis thaliana) [mTP3]”, the “Average concentration of labeled peptide” value in data set [1] amounted to 60 nm. Also, the “Photometric Cell Imaging (average counts/sec) Caco-2” value in data set [1] (labeled peptide 4 μM) was 460000 counts/sec; in data set [1] (labeled peptide 9 μM), 1200000 counts/sec; in data set [1] (labeled peptide 17 μM), 1600000 counts/sec. In data set [2], the “Peptide:DNA Ratio, Molar Binding Ratio” value came to 71.39. Besides, in data set [3], the “GFP expression” value was “GFP is expressed”.
As to “MLFRLRRSVRLRGLLA (listed as Arabidopsis thaliana) [mTP5]”, in data set [1], the “Average concentration of labeled peptide” value was found to be 60 nm. Further, the figures for the “Photometric Cell Imaging (average counts/sec) Caco-2” value in data set [1] (labeled peptide 4 μM), in data set [1] (labeled peptide 9 μM) and in data set [1] (labeled peptide 17 μM) were 280000 counts/sec, 650000 counts/sec and 1600000 counts/sec, respectively. The “Peptide:DNA Ratio, Molar Binding Ratio” value in data set [2] is given as 114.29. In data set [3], the “GFP expression” value is given as “GFP is expressed”.
On to “MWWRRSRTNSLRYT (listed as Arabidopsis thaliana) [mTP4]”, for which the “Average concentration of labeled peptide” value in data set [1] amounted to 60 nm. For the same sequence, the “Photometric Cell Imaging (average counts/sec) Caco-2” value in data set [1] (labeled peptide 4 μM) came out at 300000 counts/sec; in data set [1] (labeled peptide 9 μM), 1200000 counts/sec; in data set [1] (labeled peptide 17 μM), 1600000 counts/sec. Moreover, the “GFP expression” value in data set [3] was “GFP is expressed”.
